Paper PMC4713135

Target: EGFP-Rab5 (wild type) (UniProt P20339)
Experiment: FRET or BRET

Sequence of UniProt P20339 (P20339 whole entry): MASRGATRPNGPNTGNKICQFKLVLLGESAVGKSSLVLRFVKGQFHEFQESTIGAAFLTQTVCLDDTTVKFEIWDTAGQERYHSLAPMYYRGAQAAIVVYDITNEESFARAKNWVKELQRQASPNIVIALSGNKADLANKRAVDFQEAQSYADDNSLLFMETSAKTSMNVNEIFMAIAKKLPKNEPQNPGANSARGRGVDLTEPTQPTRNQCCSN

FRET efficiency: 10%
B1: mRFP-DRG2 (human DRG2) (natural protein)
chain: MGILEKISEIEKEIARTQKNKATEYHLGLLKAKLAKYRAQLLEPSKSASSKGEGFDVMKSGDARVALIGFPSVGKSTFLSLMTSTASEAASYEFTTLTCIPGVIEYKGANIQLLDLPGIIEGAAQGKGRGRQVIAVARTADVIIMMLDATKGEVQRSLLEKELESVGIRLNKHKPNIYFKPKKGGGISFNSTVTLTQCSEKLVQLILHEYKIFNAEVLFREDCSPDEFIDVIVGNRVYMPCLYVYNKIDQISMEEVDRLARKPNSVVISCGMKLNLDYLLEMLWEYLALTCIYTKKRGQRPDFTDAIILRKGASVEHVCHRIHRSLASQFKYALVWGTSTKYSPQRVGLTHTMEHEDVIQIVKK
